Measured values published in US9523084B2, “Phosphodeoxyribosyl transferase mutant enzymes and uses thereof” (Centre National De La Recherche Scientifique, priority 2012, dated 2016).
Substitutions are numbered along the chain they refer to. Names may count otherwise.

Assays:
[1] = substrate: Nc1ccn([C@H]2C[C@H](O)[C@@H](COP(=O)(O)O)O2)c(=O)n1; experiment: Kinetic parameters of PDT variants with deoxycytidine 5'-mono, -di and -triphosphate as donors and adenine as acceptor; type: biochemical, Lactobacillus leichmannii; conditions: 37.0 °C; for Km: adenine as acceptor, fixed
Description: (§1) The standard assay (“first protocol for enzyme assay”) for the different NDTs consisted of 5-15 μg of NDT in 50 mM MES buffer pH 6.0, dNxP (dNMP, or dNDP or dNTP) 3 mM and a base 1 mM in a total volume of 50 μL. Assays were incubated for 60 min at 37° C. The products of the reactions were analyzed each 7 min by Rapid resolution high performance liquid chromatography using a reverse-phase column (ZORBAX Eclipse XDB-C18 2.1*50 mm 1.8 μM) with a flow rate of 0.25 ml/min and a linear gradient of 1-12% CH3CN (2-25% CH3CN or 1-90% CH3CN) in 20 mM triethylammonium acetate, pH 7.5, buffer for 7 min. The low resolution mass spectra of the newly synthesized deoxyribonucleotides were obtained on an Agilent 1200 series LC/MS 6120 quadrupole system using an atmospheric electrospray ionization system.
This hypothesis was confirmed by monitoring the specific activity, in the presence of dCDP or dCTP as donor and adenine as acceptor (see table 2 above). The kinetic parameters were determined for the best variants with dCMP, dCDP and dCTP as substrates, at a concentration of A being fixed (see table 3 below).

[2] = Catalytic activity of PDTT2 to PDTT7, dATP formed (HPLC); type: biochemical; conditions: dCTP + A ⇄ dATP + C; 2 mM dCTP, 1 mM Adenine, 37° C., MES 50 mM pH6.0
Description: In specific cases, an alternative protocol was used to perform the enzyme assay. In this second protocol, the dNxP (dNMP, or dNDP or dNTP) concentration was of only 2 mM, instead of 3 mM. All of the other conditions were identical to those of the first protocol.
The catalytic activity of the mutant enzymes PDTT2, PDTT3, PDTT3b, PDTT4, PDTT5, PDTT6, PDTT7 has been compared. Briefly, a sufficient amount of enzyme mutant necessary to obtain a linear reaction over a period of one hour at 37° C. has been mixed in 2 mM dCTP and 1 mM Adenine in a final volume of 50 μL of MES buffer 50 mM pH6.0. Assays were incubated for 60 min at 37° C. The products of the reactions were analyzed each 7 min by Rapid resolution high performance liquid chromatography using a reverse-phase column (ZORBAX Eclipse XDB-C18 2.1*50 mm […]) with a flow rate of 0.25 ml/min and a linear gradient of 1-12% CH3CN (2-25% CH3CN or 1-90% CH3CN) in 20 mM triethylammonium acetate, pH 7.5, buffer for 7 min.

[3] = substrate: Nc1ncnc2c1ncn2[C@H]1C[C@H](O)[C@@H](COP(=O)(O)OP(=O)(O)OP(=O)(O)O)O1; experiment: Spectrophotometric assay coupled to xanthine oxidase, dATP + C ⇄ dCTP + A; type: biochemical, Lactobacillus leichmannii; conditions: 50 mM MES pH6.0, 37° C., pH 6.0
Description: Further, the cinetic parameters of these mutant enzymes were analysed, using a specific spectrophotometric assay. Briefly, the assay consists in measuring the formation of the final product (2,8 dihydroxyadenine) of the reaction:
Briefly, the assay was performed using the coupling of two enzymes: the variant (PDTT2, PDTT4, PDTT5, PDTT6, or PDTT7) to be tested and xanthine oxidase (obtained from Roche). The reaction mixture contained varying concentrations of dATP, 1 mM cytosine in a 50 mM MES buffer pH6.0 at 37° C. The reaction was initiated by adding 30 units of the purified variant to be tested and xanthine oxidase (Roche). The released adenine was then oxidized in 2,8-dihydroxyadenine which absorbs at 301 nm. The formation (i.e. concentration) of 2,8 dihydroxyadenine was measured by spectrophotometry.

[4] = In vitro synthesis of deoxynucleotide analogues: specific activities; type: biochemical
Description: as §1
The donor concentration was 3 mM and the acceptor 1 mM except for dCTP 2 mM 5-BrU 1 mM and dAMP 2 mM 5-FU 1 mM. Activities are expressed in nanomoles of deoxynucleotides synthesized per min per mg of protein.

[5] = Standard enzyme assay (HPLC): specific activities of PDT variants with natural purines and pyrimidines; type: biochemical; conditions: donor 3 mM, acceptor 1 mM
Description: as §1
Unless specifically mentioned, the results presented hereafter have been obtained by using the first protocol for performing the enzyme assay.

B1: Lactobacillus leichmannii nucleoside deoxyribosyltransferase (NDT, SEQ ID NO:1) variant PDTT1, R13 G92 T93 S123 K157 (F13R/D92G/V93T/N123S/Y157K), SEQ ID NO:9 … (protein)
chain: MPKKTIYFGAGWRTDRQNKAYKEAMEALKENPTIDLENSYVPLDNQYKGIRVDEHPEYLHDKVWATATYNNDLNGIKTNDIMLGVYIPDEEGTGLGMELGYALSQGKYVLLVIPDEDYGKPISLMSWGVSDNVIKMSQLKDFNFNKPRFDFYEGAVK
notes: homohexamer (108 kDa)
kcat ([1]; other: PDTT1, first line, adenine acceptor, molecular mass of 108 kDa): 0.46 s⁻¹ | Km ([1]; other: PDTT1, first line): 4.1 mM | Km ([1]; other: PDTT1, second line of the table): 8.9 mM | Km ([1]; other: PDTT1, third line of the table): 5.5 mM

B2: PDTT3: PDTT2 mutant with Proline at position 93 and Lysine at position 157, SEQ ID NO:38 (protein)
chain: B1 chain with E91Q, T93P
modifications: amino acid sequence of PDTT3 (G92/S123/R13/P93/K157/Q91)
Catalytic activity (nmol of dATP formed/min/mg of enzyme protein) [2]: 2.7 nmol of dATP formed/min/mg of enzyme protein

B3: Lactobacillus leichmannii nucleoside deoxyribosyltransferase (NDT, SEQ ID NO:1) variant PDTT4, R13 Q91 G92 S93 S123 K157 (F13R/E91Q/D92G/V93S/N123S/Y157K), SEQ … (protein)
chain: B1 chain with E91Q, T93S
notes: xanthine oxidase is coupling enzyme only
Km ([3]; other: PDTT4, 1 mM cytosine): 2.3 mM | kcat ([3]; other: PDTT4, 1 mM cytosine): 8.8 s⁻¹ | kcat/Km ([3]; other: PDTT4, 1 mM cytosine): 3800 M⁻¹ s⁻¹

B4: PDTT2: NDT mutant R13 Q91 G92 T93 S123, SEQ ID NO:10 (protein)
chain: B1 chain with E91Q, K157Y
modifications: PDTT2 enzyme mutant
Specific activity ([4]; dAMP + 5-FU → A + 5-F-dUMP, dAMP 2 mM 5-FU 1 mM): 48.4 nanomoles of deoxynucleotides synthesized per min per mg of protein | Specific activity ([4]; dCMP + 2,6-D → C + 2,6-DMP, donor 3 mM, acceptor 1 mM): 95.8 nanomoles of deoxynucleotides synthesized per min per mg of protein | Specific activity ([4]; dCMP + 2,6-chloropurine → C + 2,6-dichloropurine 2′-deoxyribose 5′-monophosphate, donor 3 mM, acceptor 1 mM): 37 nanomoles of deoxynucleotides synthesized per min per mg of protein | Specific activity ([4]; dCMP + 5-BrU → C + 5-Br-dUMP, donor 3 mM, acceptor 1 mM): 10.7 nanomoles of deoxynucleotides synthesized per min per mg of protein | Specific activity ([4]; dCMP + 6-chloropurine → C + 6-chloropurine 2′-deoxyribose 5′-monophosphate, donor 3 mM, acceptor 1 mM): 75 nanomoles of deoxynucleotides synthesized per min per mg of protein | Specific activity ([4]; dCTP + 2,6-D → C + 2,6-DTP, donor 3 mM, acceptor 1 mM): 17 nanomoles of deoxynucleotides synthesized per min per mg of protein | Specific activity ([4]; dCTP + 2,6-chloropurine → C + 2,6-dichloropurine 2′-deoxyribose 5′-triphosphate, donor 3 mM, acceptor 1 mM): 14 nanomoles of deoxynucleotides synthesized per min per mg of protein | Specific activity ([4]; dCTP + 5-BrU → C +5-Br-dUTP, dCTP 2 mM 5-BrU 1 mM): 12 nanomoles of deoxynucleotides synthesized per min per mg of protein | Specific activity ([4]; dCTP + 5-FU → C + 5-F-dUTP, donor 3 mM, acceptor 1 mM): 39.4 nanomoles of deoxynucleotides synthesized per min per mg of protein | Specific activity ([4]; dCTP + 6-chloropurine → C + 6-chloropurine 2′-deoxyribose 5′-triphosphate, donor 3 mM, acceptor 1 mM): 15 nanomoles of deoxynucleotides synthesized per min per mg of protein | Specific activity ([4]; dCTPαS + A → C + dATPαS, donor 3 mM, acceptor 1 mM): 54 nanomoles of deoxynucleotides synthesized per min per mg of protein | Catalytic activity (nmol of dATP formed/min/mg of enzyme protein) [2]: 9.6 nmol of dATP formed/min/mg of enzyme protein | Specific activity ([5]; dADP + C ⇄ dCDP + A): 8 nanomoles of deoxynucleotides synthesized per min per mg of protein | Specific activity ([5]; dADP + Hx ⇄ dIDP + A): <0.1 nanomoles of deoxynucleotides synthesized per min per mg of protein | Specific activity ([5]; dAMP + C ⇄ dCMP + A): 31 nanomoles of deoxynucleotides synthesized per min per mg of protein | Specific activity ([5]; dAMP + Hx ⇄ dIMP + A): <0.1 nanomoles of deoxynucleotides synthesized per min per mg of protein | Specific activity ([5]; dATP + C ⇄ dCTP + A): 15 nanomoles of deoxynucleotides synthesized per min per mg of protein | Specific activity ([5]; dATP + Hx ⇄ dITP + A): <0.1 nanomoles of deoxynucleotides synthesized per min per mg of protein | Specific activity ([5]; dCDP + A ⇄ dADP + C): 66 nanomoles of deoxynucleotides synthesized per min per mg of protein | Specific activity ([5]; dCDP + U ⇄ dUDP + C (U used as acceptor base instead of T)): 8 nanomoles of deoxynucleotides synthesized per min per mg of protein | Specific activity ([5]; dCMP + A ⇄ dAMP + C): 286 nanomoles of deoxynucleotides synthesized per min per mg of protein | Specific activity ([5]; dCMP + T ⇄ dTMP + C): 1.1 nanomoles of deoxynucleotides synthesized per min per mg of protein | Specific activity ([5]; dCTP + A ⇄ dATP + C): 51 nanomoles of deoxynucleotides synthesized per min per mg of protein | Specific activity ([5]; dCTP + T ⇄ dTTP + C): 1.4 nanomoles of deoxynucleotides synthesized per min per mg of protein | Specific activity ([5]; dGDP + A ⇄ dADP + G): 33 nanomoles of deoxynucleotides synthesized per min per mg of protein | Specific activity ([5]; dGMP + A ⇄ dAMP + G): 50 nanomoles of deoxynucleotides synthesized per min per mg of protein | Specific activity ([5]; dGTP + A ⇄ dATP + G): 36 nanomoles of deoxynucleotides synthesized per min per mg of protein

B5: PDTT3b: PDTT2 mutant with Glycine (G) at position 93 and Lysine at position 157, SEQ ID NO:39 (protein)
chain: B1 chain with E91Q, T93G
modifications: amino acid sequence of PDTT3b (G92/S123/R13/G93/K157/Q91)
Catalytic activity (nmol of dATP formed/min/mg of enzyme protein) [2]: 6.5 nmol of dATP formed/min/mg of enzyme protein

B6: PDTT4: PDTT2 mutant with Serine at position 93 and Lysine at position 157, SEQ ID NO:40 (protein)
chain: B1 chain with E91Q, T93S
modifications: amino acid sequence of PDTT4 (G92/S123/R13/S93/K157/Q91)
Catalytic activity (nmol of dATP formed/min/mg of enzyme protein) [2]: 10.4 nmol of dATP formed/min/mg of enzyme protein

B7: PDTT5: PDTT3 mutant with Arginine at position 157, SEQ ID NO:41 (protein)
chain: B1 chain with E91Q, T93P, K157R
modifications: amino acid sequence of PDTT5 (G92/S123/R13/P93/R157/Q91)
Catalytic activity (nmol of dATP formed/min/mg of enzyme protein) [2]: 27 nmol of dATP formed/min/mg of enzyme protein

B8: Lactobacillus leichmannii nucleoside deoxyribosyltransferase (NDT, SEQ ID NO:1) variant PDTT5, R13 Q91 G92 P93 S123 R157 (F13R/E91Q/D92G/V93P/N123S/Y157R), SEQ … (protein)
chain: B1 chain with E91Q, T93P, K157R
notes: as for B3
Km ([3]; other: PDTT5, 1 mM cytosine): 0.2 mM | kcat ([3]; other: PDTT5, 1 mM cytosine): 8.78 s⁻¹ | kcat/Km ([3]; other: PDTT5, 1 mM cytosine): 42800 M⁻¹ s⁻¹
